Measured values: patent US20180319872A1

What was measured:
[1] = target: Clostridium difficile toxin B (TcdB) (Clostridium difficile) (UniProt P18177); test: ELISA on plates coated with 1 ug/ml TcdB (TxB), OD450
[2] = target: Clostridium difficile toxin A (TcdA) (Clostridium difficile) (UniProt P16154); test: cell-based or functional assay
[3] = target: Clostridium difficile toxin A (TcdA) (Clostridium difficile) (UniProt P16154); test: ELISA on plates coated with 1 ug/ml TcdA (TxA), OD450

Clostridium difficile toxin A (TcdA) (Clostridium difficile), sequence (P16154 whole entry): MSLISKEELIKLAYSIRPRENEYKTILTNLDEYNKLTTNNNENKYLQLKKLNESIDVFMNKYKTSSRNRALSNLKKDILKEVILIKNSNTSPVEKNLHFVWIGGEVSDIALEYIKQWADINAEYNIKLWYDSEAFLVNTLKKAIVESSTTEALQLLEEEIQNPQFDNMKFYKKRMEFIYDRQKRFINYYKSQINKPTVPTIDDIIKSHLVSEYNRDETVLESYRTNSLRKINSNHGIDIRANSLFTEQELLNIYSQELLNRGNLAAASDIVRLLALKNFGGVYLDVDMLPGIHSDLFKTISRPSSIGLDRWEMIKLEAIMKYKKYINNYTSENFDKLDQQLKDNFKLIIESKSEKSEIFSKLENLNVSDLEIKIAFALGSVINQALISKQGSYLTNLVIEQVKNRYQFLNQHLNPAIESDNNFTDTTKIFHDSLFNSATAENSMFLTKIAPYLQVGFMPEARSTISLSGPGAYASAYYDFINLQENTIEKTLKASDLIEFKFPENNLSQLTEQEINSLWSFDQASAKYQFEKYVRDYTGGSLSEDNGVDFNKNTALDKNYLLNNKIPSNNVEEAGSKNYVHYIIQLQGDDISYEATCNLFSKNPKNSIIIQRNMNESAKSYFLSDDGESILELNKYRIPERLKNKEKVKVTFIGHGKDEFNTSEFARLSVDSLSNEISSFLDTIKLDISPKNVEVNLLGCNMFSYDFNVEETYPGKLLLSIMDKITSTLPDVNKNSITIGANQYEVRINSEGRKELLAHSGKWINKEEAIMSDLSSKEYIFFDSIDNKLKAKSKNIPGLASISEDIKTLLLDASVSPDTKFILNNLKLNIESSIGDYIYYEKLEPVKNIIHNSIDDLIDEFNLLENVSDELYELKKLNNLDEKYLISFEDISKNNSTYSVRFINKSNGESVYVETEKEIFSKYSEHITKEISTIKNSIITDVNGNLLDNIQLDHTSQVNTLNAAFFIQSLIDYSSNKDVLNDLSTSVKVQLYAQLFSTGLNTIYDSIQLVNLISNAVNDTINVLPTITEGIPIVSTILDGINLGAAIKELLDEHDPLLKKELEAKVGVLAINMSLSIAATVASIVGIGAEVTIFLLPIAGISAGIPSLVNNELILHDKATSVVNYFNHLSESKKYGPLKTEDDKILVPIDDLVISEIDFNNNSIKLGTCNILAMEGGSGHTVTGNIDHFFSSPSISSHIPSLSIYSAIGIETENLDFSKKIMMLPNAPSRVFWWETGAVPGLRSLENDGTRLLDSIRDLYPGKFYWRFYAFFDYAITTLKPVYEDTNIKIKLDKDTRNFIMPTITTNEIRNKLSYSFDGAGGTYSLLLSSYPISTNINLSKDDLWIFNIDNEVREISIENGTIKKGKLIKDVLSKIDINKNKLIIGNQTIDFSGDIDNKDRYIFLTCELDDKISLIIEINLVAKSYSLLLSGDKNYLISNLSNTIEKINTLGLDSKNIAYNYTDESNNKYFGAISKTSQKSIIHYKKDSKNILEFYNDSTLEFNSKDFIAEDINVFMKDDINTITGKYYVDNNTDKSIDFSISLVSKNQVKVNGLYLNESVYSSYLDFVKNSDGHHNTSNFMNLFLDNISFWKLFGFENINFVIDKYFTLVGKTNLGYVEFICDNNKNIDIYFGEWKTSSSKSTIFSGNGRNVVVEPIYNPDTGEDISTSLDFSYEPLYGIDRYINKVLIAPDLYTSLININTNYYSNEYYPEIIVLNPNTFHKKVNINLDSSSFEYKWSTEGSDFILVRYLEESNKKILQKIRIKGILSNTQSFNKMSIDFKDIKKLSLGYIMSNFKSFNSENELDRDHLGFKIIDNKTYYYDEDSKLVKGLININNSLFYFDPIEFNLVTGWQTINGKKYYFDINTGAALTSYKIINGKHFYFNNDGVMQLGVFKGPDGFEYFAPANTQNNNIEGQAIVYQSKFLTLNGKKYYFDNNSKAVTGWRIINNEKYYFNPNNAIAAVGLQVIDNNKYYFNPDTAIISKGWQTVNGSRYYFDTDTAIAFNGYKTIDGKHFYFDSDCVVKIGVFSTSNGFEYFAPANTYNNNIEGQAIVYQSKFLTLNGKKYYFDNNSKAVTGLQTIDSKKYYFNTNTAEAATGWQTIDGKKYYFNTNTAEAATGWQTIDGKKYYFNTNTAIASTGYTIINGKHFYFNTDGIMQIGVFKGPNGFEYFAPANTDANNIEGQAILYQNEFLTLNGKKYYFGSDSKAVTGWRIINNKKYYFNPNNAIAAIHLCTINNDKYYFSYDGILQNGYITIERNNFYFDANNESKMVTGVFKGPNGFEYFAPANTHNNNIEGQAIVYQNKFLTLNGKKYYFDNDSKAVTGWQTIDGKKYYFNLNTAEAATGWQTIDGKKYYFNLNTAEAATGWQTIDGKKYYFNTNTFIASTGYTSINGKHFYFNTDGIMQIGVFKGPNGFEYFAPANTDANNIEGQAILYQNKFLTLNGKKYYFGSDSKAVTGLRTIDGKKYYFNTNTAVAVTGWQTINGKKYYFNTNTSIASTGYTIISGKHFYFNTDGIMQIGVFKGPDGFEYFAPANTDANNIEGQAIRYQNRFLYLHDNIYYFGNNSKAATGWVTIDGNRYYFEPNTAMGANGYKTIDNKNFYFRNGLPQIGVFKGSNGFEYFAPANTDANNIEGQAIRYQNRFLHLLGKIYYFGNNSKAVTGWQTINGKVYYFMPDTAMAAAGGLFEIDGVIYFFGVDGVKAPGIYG
Clostridium difficile toxin B (TcdB) (Clostridium difficile), sequence (P18177 2-2366 limits assumed): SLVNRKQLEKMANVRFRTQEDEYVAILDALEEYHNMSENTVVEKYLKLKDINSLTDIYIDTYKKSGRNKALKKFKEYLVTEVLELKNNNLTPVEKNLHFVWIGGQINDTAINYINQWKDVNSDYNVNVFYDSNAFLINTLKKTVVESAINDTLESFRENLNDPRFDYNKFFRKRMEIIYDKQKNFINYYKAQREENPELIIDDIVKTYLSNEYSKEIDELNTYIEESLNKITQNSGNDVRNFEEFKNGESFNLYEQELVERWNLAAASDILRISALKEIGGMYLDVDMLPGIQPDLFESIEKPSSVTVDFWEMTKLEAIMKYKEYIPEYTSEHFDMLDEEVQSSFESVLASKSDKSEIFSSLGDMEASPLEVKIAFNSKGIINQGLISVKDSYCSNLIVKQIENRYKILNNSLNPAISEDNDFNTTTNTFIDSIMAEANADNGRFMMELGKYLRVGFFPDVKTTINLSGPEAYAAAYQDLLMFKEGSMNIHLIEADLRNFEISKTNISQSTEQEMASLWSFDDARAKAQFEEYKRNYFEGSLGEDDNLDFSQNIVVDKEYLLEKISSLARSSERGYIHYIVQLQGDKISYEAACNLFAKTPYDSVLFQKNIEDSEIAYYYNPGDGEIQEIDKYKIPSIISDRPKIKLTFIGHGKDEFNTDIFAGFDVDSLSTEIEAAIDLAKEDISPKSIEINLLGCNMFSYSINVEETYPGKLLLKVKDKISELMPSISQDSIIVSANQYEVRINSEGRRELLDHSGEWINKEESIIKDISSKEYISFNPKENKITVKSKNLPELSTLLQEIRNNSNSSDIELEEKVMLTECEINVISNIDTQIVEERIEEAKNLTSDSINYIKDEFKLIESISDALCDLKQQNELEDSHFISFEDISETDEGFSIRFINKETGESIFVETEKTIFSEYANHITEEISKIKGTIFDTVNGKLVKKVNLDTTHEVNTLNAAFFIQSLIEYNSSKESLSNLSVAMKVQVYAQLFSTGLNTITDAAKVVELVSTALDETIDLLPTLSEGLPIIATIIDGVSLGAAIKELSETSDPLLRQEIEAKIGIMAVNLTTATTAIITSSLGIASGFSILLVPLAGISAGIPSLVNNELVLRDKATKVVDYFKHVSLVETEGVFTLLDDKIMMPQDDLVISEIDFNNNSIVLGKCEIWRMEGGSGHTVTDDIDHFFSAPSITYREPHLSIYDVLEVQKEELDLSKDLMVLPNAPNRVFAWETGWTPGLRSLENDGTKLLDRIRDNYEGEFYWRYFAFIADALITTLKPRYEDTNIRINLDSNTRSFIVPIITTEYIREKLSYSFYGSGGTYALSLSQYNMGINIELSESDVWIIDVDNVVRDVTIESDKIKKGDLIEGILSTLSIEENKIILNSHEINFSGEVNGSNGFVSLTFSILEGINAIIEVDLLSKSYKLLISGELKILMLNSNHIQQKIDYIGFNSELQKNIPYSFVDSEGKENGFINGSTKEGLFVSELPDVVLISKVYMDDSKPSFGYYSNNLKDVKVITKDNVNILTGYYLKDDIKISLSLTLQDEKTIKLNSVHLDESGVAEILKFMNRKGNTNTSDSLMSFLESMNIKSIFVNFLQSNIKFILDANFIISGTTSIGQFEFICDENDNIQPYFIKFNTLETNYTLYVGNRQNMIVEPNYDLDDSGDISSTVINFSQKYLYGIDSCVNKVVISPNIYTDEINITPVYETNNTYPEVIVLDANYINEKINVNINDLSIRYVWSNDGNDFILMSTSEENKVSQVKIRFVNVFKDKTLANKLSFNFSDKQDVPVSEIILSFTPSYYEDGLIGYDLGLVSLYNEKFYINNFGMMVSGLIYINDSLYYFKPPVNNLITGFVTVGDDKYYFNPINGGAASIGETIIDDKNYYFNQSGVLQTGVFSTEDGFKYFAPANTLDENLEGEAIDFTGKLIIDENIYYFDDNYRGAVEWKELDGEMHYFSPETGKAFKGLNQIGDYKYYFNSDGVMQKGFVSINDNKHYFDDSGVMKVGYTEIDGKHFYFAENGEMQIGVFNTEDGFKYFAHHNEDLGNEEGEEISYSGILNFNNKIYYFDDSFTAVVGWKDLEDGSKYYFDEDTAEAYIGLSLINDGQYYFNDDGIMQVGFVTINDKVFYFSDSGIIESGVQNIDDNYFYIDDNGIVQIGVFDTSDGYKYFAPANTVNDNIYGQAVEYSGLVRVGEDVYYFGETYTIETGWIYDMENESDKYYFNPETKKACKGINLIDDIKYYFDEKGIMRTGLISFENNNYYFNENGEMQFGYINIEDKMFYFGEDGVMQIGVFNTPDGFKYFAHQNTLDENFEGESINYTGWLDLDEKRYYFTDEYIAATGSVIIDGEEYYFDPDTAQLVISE

Merc Ab (antibody)
EC50 (read off the curve) [1]: 10 ng/mL

Merck anti-TcdA human monoclonal antibody (actoxumab)
minimal dose protecting Vero cells from TcdA-induced cell rounding (5 ng/ml TcdA) [2]: > 10 nM | EC50 (read off the curve) [3]: 2 ng/mL
